In US20210324351, “STRUCTURE OF THE HUMAN CGAS-DNA COMPLEX AND USES THEREOF” (Presodent and Fellows of Harvard College, published 2021):

What was measured:
[1] = target: T1, hcGAS K187N/L195R (hcGAS*) (Homo sapiens, UniProt Q8N884 SEQ:1-366); test: EMSA; gradient dialysis to 50 mM KCl, 4 C; stable low-MW complex restored, oligomers unaffected; conditions: tags: untagged (6xHis-SUMO2 removed with SENP2); chain copies: 2 (2:2 complex with DNA, stated)
T1 chain: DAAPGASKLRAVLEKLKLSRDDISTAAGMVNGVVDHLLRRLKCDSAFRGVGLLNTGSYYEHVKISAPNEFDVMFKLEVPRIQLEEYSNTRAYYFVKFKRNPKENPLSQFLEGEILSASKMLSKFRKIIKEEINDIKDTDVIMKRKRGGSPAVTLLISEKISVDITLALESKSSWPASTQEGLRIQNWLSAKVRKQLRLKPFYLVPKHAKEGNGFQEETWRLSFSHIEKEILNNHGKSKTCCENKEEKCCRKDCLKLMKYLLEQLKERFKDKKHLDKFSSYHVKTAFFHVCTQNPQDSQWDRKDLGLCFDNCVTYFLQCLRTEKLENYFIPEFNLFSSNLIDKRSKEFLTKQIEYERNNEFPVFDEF
Description: (§1) cGAS-DNA complexes were stably assembled using a method adapted from a nucleosome assembly gradient dialysis protocol (Lee and Narlikar (2001) Current protocols in molecular biology Chapter 21, Unit 21.26), and complex formation was measured by electrophoretic mobility shift analysis. Briefly, a concentration gradient of recombinant protein (0.2, 0.4, 2, 10 μM) was incubated with 45 bp dsDNA (2 μM) in a high-salt buffer containing 20 mM HEPES-NaOH pH 7.8, […], 1 mM DTT at 4° C. for 20 min. The reconstitution mixture was then transferred into 8-10 kDa molecular weight cut-off dialysis tubing (Spectrum Labs), and placed into a beaker of the high-salt buffer. The KCl concentration was reduced gradually by slowly replacing high-salt buffer with low-salt buffer (20 mM HEPES-KOH pH 7.5, 50 mM KCl, 1 mM DTT) with a peristaltic pump (Bio-Rad) at a rate of […] for 48 hr at 4° C. After gradient dialysis, reactions were supplemented to 5% glycerol, and subsequently separated on a 2% agarose gel in 0.5×TBE buffer at 4° C. […] Alternatively, where indicated in FIGS. 8A and 8C, cGAS-DNA complexes were assembled by incubating directly in reaction buffer containing 20 mM HEPES-NaOH pH 7.8, […], 1 mM DTT at 4° C. for 20 min and analyzed by electrophoretic mobility shift analysis as indicated above. […]

[2] = target: mcGAS humanized K187/L195 (UniProt Q8C6L5 SEQ:1-361, N172K,R180L); test: EMSA; gradient dialysis to 50 mM KCl, 4 C; low-MW complex ablated, higher-order oligomers retained; conditions: tags: untagged (6xHis-SUMO2 removed with SENP2)
Sequence of mcGAS humanized K187/L195 (Q8C6L5 147-507 N172K/R180L): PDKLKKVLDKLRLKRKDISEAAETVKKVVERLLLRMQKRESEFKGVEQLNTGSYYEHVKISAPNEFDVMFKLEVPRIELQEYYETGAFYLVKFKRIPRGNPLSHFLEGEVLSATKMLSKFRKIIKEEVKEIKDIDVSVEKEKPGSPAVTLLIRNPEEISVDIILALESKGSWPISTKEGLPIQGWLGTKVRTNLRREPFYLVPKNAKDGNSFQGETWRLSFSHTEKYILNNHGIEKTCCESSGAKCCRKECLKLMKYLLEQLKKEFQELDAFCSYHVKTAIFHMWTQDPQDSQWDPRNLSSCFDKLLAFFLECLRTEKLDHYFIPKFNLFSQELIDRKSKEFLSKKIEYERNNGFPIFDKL
Description: as §1

[3] = target: mcGAS catalytic domain WT (UniProt Q8C6L5 SEQ:1-361); test: EMSA; gradient dialysis to 50 mM KCl, 4 C; minimal complex plus higher-order oligomers; conditions: tags: untagged (6xHis-SUMO2 removed with SENP2)
Sequence of mcGAS catalytic domain WT (Q8C6L5 147-507): as the sequence (Q8C6L5 147-507 N172K/R180L) above, with K26N, L34R counted along it
Description: as §1

[4] = target: hcGAS catalytic domain WT (Homo sapiens, UniProt Q8N884 SEQ:1-366); test: EMSA; gradient dialysis to 50 mM KCl, 4 C; preferentially higher-order oligomers; conditions: tags: untagged (6xHis-SUMO2 removed with SENP2)
Description: as §1

Measured: binding result

B1: 45 bp interferon stimulatory DNA (dsDNA)
DNA 1: TACAGATCTACTAGTGATCTATGACTGATCTGTACATGATCTACA
DNA 2: TGTAGATCATGTACAGATCAGTCATAGATCACTAGTAGATCTGTA
binds: all assays above
